± gives the standard deviation of the averaged measurements.
Test: total protein half-life in vivo (active degradation + dilution); higher = more stable protein
[1] = E. coli NCM3722 delta-clpP delta-lon delta-hslV, growth: N-lim chemostat, doubling time 6 h
[2] = E. coli NCM3722 delta-clpP, growth: N-lim chemostat, doubling time 6 h
[3] = E. coli NCM3722 delta-hslV, growth: N-lim chemostat, doubling time 6 h
[4] = E. coli NCM3722 delta-lon, growth: N-lim chemostat, doubling time 6 h
[5] = E. coli NCM3722 delta-smpB, growth: N-lim chemostat, doubling time 6 h
[6] = wild type E. coli NCM3722, growth: C-lim chemostat, doubling time 3 h
[7] = wild type E. coli NCM3722, growth: C-lim chemostat, doubling time 6 h
[8] = wild type E. coli NCM3722, growth: C-lim chemostat, doubling time 12 h
[9] = wild type E. coli NCM3722, growth: N-lim chemostat, doubling time 6 h
[10] = wild type E. coli NCM3722, growth: N-lim chemostat, doubling time 12 h
[11] = wild type E. coli NCM3722, growth: P-lim chemostat, doubling time 6 h
[12] = wild type E. coli NCM3722, growth: P-lim chemostat, doubling time 12 h

Sequence	total protein half-life in vivo [1]	total protein half-life in vivo [2]	total protein half-life in vivo [3]	total protein half-life in vivo [4]	total protein half-life in vivo [5]	total protein half-life in vivo [6]	total protein half-life in vivo [7]	total protein half-life in vivo [8]	total protein half-life in vivo [9]	total protein half-life in vivo [10]	total protein half-life in vivo [11]	total protein half-life in vivo [12]
MISVTLSQLTDILNGELQGADITLDAVTTDTRKLTPGCLFVALKGERFDAHDFADQAKAGGAGALLVSRPLDIDLPQLIVKDTRLAFGELAAWVRQQVPARVVALTGSSGKTSVKEMTAAILSQCGNTLYTAGNLNNDIGVPMTLLRLTPEYDYAVIELGANHQGEIAWTVSLTRPEAALVNNLAAAHLEGFGSLAGVAKAKGEIFSGLPENGIAIMNADNNDWLNWQSVIGSRKVWRFSPNAANSDFTATNIHVTSHGTEFTLQTPTGSVDVLLPLPGRHNIANALAAAALSMSVGATLDAIKAGLANLKAVPGRLFPIQLAENQLLLDDSYNANVGSMTAAVQVLAEMPGYRVLVVGDMAELGAESEACHVQVGEAAKAAGIDRVLSVGKQSHAISTASGVGEHFADKTALITRLKLLIAEQQVITILVKGSRSAAMEEVVRALQENGTC	4.74 ± 0.18 h	4.41 ± 0.27 h	5.24 ± 0.92 h	4.44 ± 0.34 h	4.68 ± 0.057 h	3.37 ± 0.67 h	6.24 ± 1.3 h	9.83 ± 0.28 h	4.48 ± 0.31 h	7.03 ± 0.19 h	5.79 ± 0.27 h	10.2 ± 1.7 h
MGDIMRPIPFEELLTRIFDEYQQQRSIFGIPEQQFYSPVKGKTVSVFGETCATPVGPAAGPHTQLAQNIVTSWLTGGRFIELKTVQILDRLELEKPCIDAEDECFNTEWSTEFTLLKAWDEYLKAWFALHLLEAMFQPSDSGKSFIFNMSVGYNLEGIKQPPMQQFIDNMMDASDHPKFAQYRDTLNKLLQDDAFLARHGLQEKRESLQALPARIPTSMVHGVTLSTMHGCPPHEIEAICRYMLEEKGLNTFVKLNPTLLGYARVREILDVCGFGYIGLKEESFDHDLKLTQALEMLERLMALAKEKSLGFGVKLTNTLGTINNKGALPGEEMYMSGRALFPLSINVAAVLSRAFDGKLPISYSGGASQLTIRDIFDTGIRPITMATDLLKPGGYLRLSACMRELEGSDAWGLDHVDVERLNRLAADALTMEYTQKHWKPEERIEVAEDLPLTDCYVAPCVTACAIKQDIPEYIRLLGEHRYADALELIYQRNALPAITGHICDHQCQYNCTRLDYDSALNIRELKKVALEKGWDEYKQRWHKPAGSGSRHPVAVIGAGPAGLAAGYFLARAGHPVTLFEREANAGGVVKNIIPQFRIPAELIQHDIDFVAAHGVKFEYGCSPDLTIEQLKNQGFHYVLIATGTDKNSGVKLAGDNQNVWKSLPFLREYNKGTALKLGKHVVVVGAGNTAMDCARAALRVPGVEKATIVYRRSLQEMPAWREEYEEALHDGVEFRFLNNPERFDADGTLTLRVMSLGEPDEKGRRRPVETNETVTLLVDSLITAIGEQQDTEALNAMGVPLDKNGWPDVDHNGETRLTDVFMIGDVQRGPSSIVAAVGTARRATDAILSRENIRSHQNDKYWNNVNPAEIYQRKGDISITLVNSDDRDAFVAQEAARCLECNYVCSKCVDVCPNRANVSIAVPGFQNRFQTLHLDAYCNECGNCAQFCPWNGKPYKDKITVFSLAQDFDNSSNPGFLVEDCRVRVRLNNQSWVLNIDSKGQFNNVPPELNDMCRIISHVHQHHHYLLGRVEV	6.26 ± 1.4 h	5.57 h	5.57 h	6.62 h		2.86 ± 0.32 h	6.06 h		6.49 h			
MKTGSEFHVGIVGLGSMGMGAALSYVRAGLSTWGADLNSNACATLKEAGACGVSDNAATFAEKLDALLVLVVNAAQVKQVLFGETGVAQHLKPGTAVMVSSTIASADAQEIATALAGFDLEMLDAPVSGGAVKAANGEMTVMASGSDIAFERLAPVLEAVAGKVYRIGAEPGLGSTVKIIHQLLAGVHIAAGAEAMALAARAGIPLDVMYDVVTNAAGNSWMFENRMRHVVDGDYTPHSAVDIFVKDLGLVADTAKALHFPLPLASTALNMFTSASNAGYGKEDDSAVIKIFSGITLPGAKS	5.94 h					0.261 h	0.509 h	1.69 ± 1.5 h				
MKKLFIQFYLLLFVCFLVMSLLVGLVYKFTAERAGKQSLDDLMNSSLYLMRSELREIPPHDWGKTLKEMDLNLSFDLRVEPLSKYHLDDISMHRLRGGEIVALDDQYTFLQRIPRSHYVLAVGPVPYLYYLHQMRLLDIALIAFIAISLAFPVFIWMRPHWQDMLKLEAAAQRFGDGHLNERIHFDEGSSFERLGVAFNQMADNINALIASKKQLIDGIAHELRTPLVRLRYRLEMSDNLSAAESQALNRDISQLEALIEELLTYARLDRPQNELHLSEPDLPLWLSTHLADIQAVTPDKTVRIKTLVQGHYAALDMRLMERVLDNLLNNALRYCHSTVETSLLLSGNRATLIVEDDGPGIAPENREHIFEPFVRLDPSRDRSTGGCGLGLAIVHSIALAMGGTVNCDTSELGGARFSFSWPLWHNIPQFTSA			6.14 ± 0.51 h		6.03 ± 0.18 h	2.755 ± 0.017 h	6.26 h	12.5 ± 4.9 h	6.3 h	10.1 ± 2.2 h	5.97 ± 0.2 h	11.4 ± 0.61 h

Reference: the supplement of paper PMC11246515
